Reference: article PMC4763187

Substrate: O=C(O)C(=O)O
Assay: purified protein
Conditions: pH 8.0, 5 mM ATP, 0.5 mM CoA, 10 mM MgCl2, 2 mM DTT, oxalate up to 400 μM

B1: MtAAE3 (Medicago truncatula Acyl Activating Enzyme 3; oxalyl-CoA synthetase) (Medicago truncatula) (protein)
chain: ETATTLTGLLQSVAEKFPSRRAISVAGKFDLTHSQLHELVESAANHLISAGIKPNDVVALTFPNTIEYVIMFLAVIRVRATAAPLNAAYTSEEFEFYLSDSESKLLLTPLEGNNPAQTAATKLNIPLGSVCFNKTEEETKLSISLNQTESANSVSELINEPSDVALFLHTSGTTSRPKGVPLSQHNLVSSVRNIESVYRLSELDSTVIVLPLFHVHGLIAGLLSSLGAGGAVALPAAGRFSASTFWKDMIQYNATWYTAVPTIHQIILDRHQSNPEPVYPKLRFIRSCSASLAPVILGRLEEAFGAPVLEAYAMTEATHLMCSNPLPEDGPHKAGSVGKPVGQEMAILDESGRVLEADVNGEVCIKGENVTKGYKNNEEANKSAFLFGWFHTGDIGYFDSDGYLHLVGRIKELINRGGEKISPIEVDAVLLGHQDVAQAVAFGVPDQKYGEEIHCAIIPREGSNIDAEEVLKYCKTNLTSFKVPKKVFITDSLPKTATGKILRRLVAEHFVSQA
Km: 81.0 ± 8.1 µM
